Measurements published in article PMC11323569 (mBio, 2024).

Key:
[1] = molecular target: PrgKEC, extracytoplasmic region of PrgK (residues 273-871) (Enterococcus faecalis (plasmid pCF10)) (UniProt Q5G3P4); experiment: […], pH 5.0, 100 mM NaCl; […]
non-reducing SDS-PAGE = molecular target: the molecule itself; experiment: non-reducing SDS-PAGE
[2] = molecular target: the molecule itself; experiment: […], pH 5.0, 100 mM NaCl; […]

PrgL_(32-208), extracellular domain of PrgL (domain or fragment)
stoichiometry N (PrgL32-208 per PrgKEC (1:1)) [1]: 1

B1: PrgK_(SLT-CHAP) (residues 530-871) (domain or fragment)
chain: LLGSADFSPGASVEKRAQAVYDYLSKKGYTKEGISAILGNFSVESGINPKRAEGDYLNPPVGAHGNSWDEPSWLSMGGPQIYGGRFPNILHRGLGLGQWTDTADGGRRHTLLLDYAKGKNKKWYDLQLQLDFIFDGDAPGSRTAADNVARSKVAATIPELTTYFLTVWEGNPGDKLGERIQAAQNWFTFFSRSGTPIGGSGSEVFAQYKEKMQPLPTDRETKAGQGWPGNAYAPGNCTWYVFNRFAQLGKSIHPTMGNANQWVHNYSQTPGATLESAPKKGDAVIFTNGVAGSSTQYGHVAYVEHVNSDGSFVISEMNVSGEYSMNWRVLKKEAGEYFMRLN
binding result (non-reducing SDS-PAGE): binds

B2: PrgK_(CHAP) (residues 723-871) (domain or fragment)
chain: GTPIGGSGSEVFAQYKEKMQPLPTDRETKAGQGWPGNAYAPGNCTWYVFNRFAQLGKSIHPTMGNANQWVHNYSQTPGATLESAPKKGDAVIFTNGVAGSSTQYGHVAYVEHVNSDGSFVISEMNVSGEYSMNWRVLKKEAGEYFMRLN
notes: also called CHAP domain; source: E. coli BL21(DE3), purified (IMAC fractions)
binding result (non-reducing SDS-PAGE): binds

B3: PrgKEC, extracytoplasmic region of PrgK (residues 273-871) (domain or fragment)
chain: ASSTQKPAIVQEEEDLTASWTYFTKLDAQHTDDNNLFYSNIDEVLFYMNYRYDDFKLLDMDSTGTKNFETILSELWTALNGKKPDYQLKTMQSLETDKKSSYFIEEEQAKHYQEIKKELGYQTLDDLLSFPVKTDALIVNKRYGYDKSKEKLTLYQGIDVLIEDNQPFHSPMNGQIVSVPDTETLVIEKEKVARLTIRGVNTLRLTKGMDVEEGTFLGNTKNSTVTFQYEKYKKETKDWFFVNPAFYFPRVTYTQTTLLGSADFSPGASVEKRAQAVYDYLSKKGYTKEGISAILGNFSVESGINPKRAEGDYLNPPVGAHGNSWDEPSWLSMGGPQIYGGRFPNILHRGLGLGQWTDTADGGRRHTLLLDYAKGKNKKWYDLQLQLDFIFDGDAPGSRTAADNVARSKVAATIPELTTYFLTVWEGNPGDKLGERIQAAQNWFTFFSRSGTPIGGSGSEVFAQYKEKMQPLPTDRETKAGQGWPGNAYAPGNCTWYVFNRFAQLGKSIHPTMGNANQWVHNYSQTPGATLESAPKKGDAVIFTNGVAGSSTQYGHVAYVEHVNSDGSFVISEMNVSGEYSMNWRVLKKEAGEYFMRLN
notes: also called PrgKEC wild type; extracellular domain of PrgK; source: E. coli BL21(DE3), purified (Ni-NTA, PreScission elution, Superdex-200 SEC)
stoichiometry N [2]: 2 chains in the oligomer (dimer)
